Non-standard residues stand in square brackets, D forms with d. Residues, ends and D or L forms follow the SMILES beside them. PKcap1 = N-terminal cap C18 diacid-γGlu-mPEG2; d(αMeW) = C[C@@](N)(Cc1c[nH]c2ccccc12)C(=O)O; PKcap2 = N-terminal cap Aryl(4-I)-Gly-mPEG2; Bip = N[C@@H](Cc1ccc(-c2ccccc2)cc1)C(=O)O; Phe(4-Br) = N[C@@H](Cc1ccc(Br)cc1)C(=O)O; Phe(4-Cl) = N[C@@H](Cc1ccc(Cl)cc1)C(=O)O; Phe(4-I) = N[C@@H](Cc1ccc(I)cc1)C(=O)O; NMeH = CN[C@@H](Cc1c[nH]cn1)C(=O)O; Nle = CCCC[C@H](N)C(=O)O; Aib = CC(C)(N)C(=O)O

21 molecules from patent US20240287154A1, “MC3R AGONIST PEPTIDES” (The Regents of the University of Michigan, priority 2021, published 2024) can be followed below.

To fix the notation:
B1: CTX-1171 (peptide)
peptide: H-[dY]V[Nle][dA]H[Phe(4-I)]R[dW]D-NH2
SMILES: CCCC[C@H](NC(=O)[C@@H](NC(=O)[C@H](N)Cc1ccc(O)cc1)C(C)C)C(=O)N[C@H](C)C(=O)N[C@@H](Cc1c[nH]cn1)C(=O)N[C@@H](Cc1ccc(I)cc1)C(=O)N[C@@H](CCCNC(=N)N)C(=O)N[C@H](Cc1c[nH]c2ccccc12)C(=O)N[C@@H](CC(=O)O)C(N)=O
B2: CTX-1155 (peptide)
peptide: PKcap1-G[dY]V[Nle][dA]HFR[dW]D[dR]FG-OH
B3: CTX-1149 (PKcap1, SEQ ID NO 40) (peptide)
peptide: PKcap1-GV[Nle][dA]HFR[dW]DRFG-OH
B4: CTX-1163 (peptide)
peptide: Ac-[Nle][dA]HFR[dW]DR-NH2
SMILES: CCCC[C@H](NC(C)=O)C(=O)N[C@H](C)C(=O)N[C@@H](Cc1c[nH]cn1)C(=O)N[C@@H](Cc1ccccc1)C(=O)N[C@@H](CCCNC(=N)N)C(=O)N[C@H](Cc1c[nH]c2ccccc12)C(=O)N[C@@H](CC(=O)O)C(=O)N[C@@H](CCCNC(=N)N)C(N)=O
B5: CTX-1154 (peptide)
peptide: PKcap2-G[Nle][dA]HFR[dW]DR[dF]G-OH
B6: CTX-1164 (peptide)
peptide: Ac-[Nle][dA]HFR[dW]GKPV-NH2
SMILES: CCCC[C@H](NC(C)=O)C(=O)N[C@H](C)C(=O)N[C@@H](Cc1c[nH]cn1)C(=O)N[C@@H](Cc1ccccc1)C(=O)N[C@@H](CCCNC(=N)N)C(=O)N[C@H](Cc1c[nH]c2ccccc12)C(=O)NCC(=O)N[C@@H](CCCCN)C(=O)N1CCC[C@H]1C(=O)N[C@H](C(N)=O)C(C)C
B7: CTX-1156 (peptide)
peptide: PKcap2-G[dY]V[Nle][dA]HFR[dW]D[dR]FG-OH
B8: CTX-1168 (peptide)
peptide: Ac-[Nle][dA]H[Bip]R[dW]DRFG-NH2
SMILES: CCCC[C@H](NC(C)=O)C(=O)N[C@H](C)C(=O)N[C@@H](Cc1c[nH]cn1)C(=O)N[C@@H](Cc1ccc(-c2ccccc2)cc1)C(=O)N[C@@H](CCCNC(=N)N)C(=O)N[C@H](Cc1c[nH]c2ccccc12)C(=O)N[C@@H](CC(=O)O)C(=O)N[C@@H](CCCNC(=N)N)C(=O)N[C@@H](Cc1ccccc1)C(=O)NCC(N)=O
B9: CTX-1153 (peptide)
peptide: PKcap1-G[Nle][dA]HFR[dW]DR[dF]G-OH
B10: CTX-1150 (peptide)
peptide: PKcap2-GV[Nle][dA]HFR[dW]DRFG-OH
B11: CTX-1148 (peptide)
peptide: PKcap2-G[Nle][dA]HFR[dW]DRFG-OH
B12: CTX-1151 (peptide)
peptide: PKcap1-G[dY]V[Nle][dA]HFR[dW]DRFG-OH
B13: CTX-1122 (peptide)
peptide: Ac-[Nle][dA]HFR[dW]DRFG-OH
SMILES: CCCC[C@H](NC(C)=O)C(=O)N[C@H](C)C(=O)N[C@@H](Cc1c[nH]cn1)C(=O)N[C@@H](Cc1ccccc1)C(=O)N[C@@H](CCCNC(=N)N)C(=O)N[C@H](Cc1c[nH]c2ccccc12)C(=O)N[C@@H](CC(=O)O)C(=O)N[C@@H](CCCNC(=N)N)C(=O)N[C@@H](Cc1ccccc1)C(=O)NCC(=O)O
B14: CTX-1165 (peptide)
peptide: Ac-[Nle][dA]H[Phe(4-Br)]R[dW]DRFG-OH
SMILES: CCCC[C@H](NC(C)=O)C(=O)N[C@H](C)C(=O)N[C@@H](Cc1c[nH]cn1)C(=O)N[C@@H](Cc1ccc(Br)cc1)C(=O)N[C@@H](CCCNC(=N)N)C(=O)N[C@H](Cc1c[nH]c2ccccc12)C(=O)N[C@@H](CC(=O)O)C(=O)N[C@@H](CCCNC(=N)N)C(=O)N[C@@H](Cc1ccccc1)C(=O)NCC(=O)O
B15: CTX-1147 (peptide)
peptide: PKcap1-G[Nle][dA]HFR[dW]DRFG-OH
B16: CTX-1166 (peptide)
peptide: Ac-[Nle][dA]H[Phe(4-Cl)]R[dW]DRFG-OH
SMILES: CCCC[C@H](NC(C)=O)C(=O)N[C@H](C)C(=O)N[C@@H](Cc1c[nH]cn1)C(=O)N[C@@H](Cc1ccc(Cl)cc1)C(=O)N[C@@H](CCCNC(=N)N)C(=O)N[C@H](Cc1c[nH]c2ccccc12)C(=O)N[C@@H](CC(=O)O)C(=O)N[C@@H](CCCNC(=N)N)C(=O)N[C@@H](Cc1ccccc1)C(=O)NCC(=O)O

Chain of human MC4R (P32245 whole entry): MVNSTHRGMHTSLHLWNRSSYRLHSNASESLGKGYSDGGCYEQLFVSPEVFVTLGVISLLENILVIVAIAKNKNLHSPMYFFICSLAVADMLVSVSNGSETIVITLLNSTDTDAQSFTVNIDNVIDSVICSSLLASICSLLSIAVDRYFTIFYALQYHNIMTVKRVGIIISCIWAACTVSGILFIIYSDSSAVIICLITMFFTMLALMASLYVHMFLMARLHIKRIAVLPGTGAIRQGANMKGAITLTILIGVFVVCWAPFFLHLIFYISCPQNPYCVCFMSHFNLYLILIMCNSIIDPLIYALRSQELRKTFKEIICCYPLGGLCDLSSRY

For the first assay, the target named is human MC3R (human, UniProt P41968 1-323). Kind of assay: cell-based or functional assay.
Chain of human MC3R (P41968 whole entry): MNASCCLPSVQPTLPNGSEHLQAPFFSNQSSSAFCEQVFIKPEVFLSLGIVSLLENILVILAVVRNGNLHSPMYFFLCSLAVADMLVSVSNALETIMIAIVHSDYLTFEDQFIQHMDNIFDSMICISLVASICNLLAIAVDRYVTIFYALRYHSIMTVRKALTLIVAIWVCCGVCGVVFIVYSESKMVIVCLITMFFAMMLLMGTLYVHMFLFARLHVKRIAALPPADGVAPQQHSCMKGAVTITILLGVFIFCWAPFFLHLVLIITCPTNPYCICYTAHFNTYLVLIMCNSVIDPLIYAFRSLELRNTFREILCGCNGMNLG
Details: not given
Consider B1, for which the “MC3R cAMP (EC50)” value amounted to 54 nM and the “MC3R selectivity (relative to MC4R)” value is 234.

With B2, the “MC3R cAMP (EC50)” value came out at 3130 nM and the “MC3R selectivity (relative to MC4R)” value came to 415. In the case of B3, the “MC3R cAMP (EC50)” value turned out to be 313 nM and the “MC3R selectivity (relative to MC4R)” value amounted to 215. The corresponding values for B4 are 19.4 nM and 282. Regarding B5, the “MC3R cAMP (EC50)” value amounted to 5.8 nM and the “MC3R selectivity (relative to MC4R)” value was 1070.

B6: the “MC3R cAMP (EC50)” value was 1.5 nM and the “MC3R selectivity (relative to MC4R)” value is 83. The corresponding values for B7 are 8.6 nM and 86. The corresponding values for B8 are 28.6 nM and 485. The corresponding values for B9 are 5120 nM and 0.13. B10: the “MC3R cAMP (EC50)” value turned out to be 2.9 nM and the “MC3R selectivity (relative to MC4R)” value amounted to 577. The corresponding values for B11 are 1.5 nM and 1200. Regarding B12, the “MC3R cAMP (EC50)” value amounted to 299 nM and the “MC3R selectivity (relative to MC4R)” value is 126.

For B13, the “MC3R cAMP (EC50)” value was 1.2 nM and the “MC3R selectivity (relative to MC4R)” value stood at 7700. For B14, the “MC3R cAMP (EC50)” value turned out to be 3 nM and the “MC3R selectivity (relative to MC4R)” value was 5600. The corresponding values for B15 are 556 nM and 335. The corresponding values for B16 are 1.6 nM and 3100.

The target in a further assay is human MC4R (Homo sapiens, UniProt P32245). Description: Intracellular cAMP levels in live cells, MC3R selectivity relative to MC4R. The class given is cell-based. To be noted: cAMP assays in human MC3R and human MC4R stable cell lines. The procedure:
The stable cell lines were grown and maintained in selection media consisting of Dulbecco's modified Eagle media (DMEM) with 4.5 g/l D-glucose, and 4 mM L-glutamine (Thermo Fisher Scientific, Waltham, MA), supplemented with 10% fetal bovine serum, 100 units/ml penicillin, 100 μg/ml streptomycin, 2.5 μg/ml amphotericin B, 200 μg/ml hygromycin B (for positive selection of the GScAMP22f luciferase reporter), and Geneticin™ (G418) 700 μg/ml (for MC3R or MC4R selection). Actual serum concentration during the assay is estimated to be about 1%. Cell line identity is routinely verified by qPCR and MC3R- and MC4R-specific oligonucleotides.
The assay for the determination of the CAMP response in live cells was described previously. […] Ccells were seeded at a density of 20,000 cells per well using 384-well poly-D lysine-coated, clear bottom, and black-wall assay plates (Corning Inc. Corning, NJ). Cells were allowed to attach to the plates for 18 to 24 h after which growth media was removed and 20 ul of 4% D-luciferin (Promega) in CO2 independent, serum-free medium (Thermo Fisher Scientific) was added to each well. […] Intracellular cAMP levels were measured using an FDSS 7000EX Functional Drug Screening System (Hamamatsu Photonics, Hamamatsu, Japan) in the Center for Chemical Genomics at the Life Sciences Institute. This instrument allowed the in-line addition of test-peptides and receptor agonists while simultaneously acquiring the luminescence signal from live cells. […] A submaximal forskolin (20 μM) concentration was also included to serve as a normalization reference to account for cell number variations and differences in assay transducer efficiency between cell lines.
With this set up it was possible to evaluate the direct agonist effect of the test-peptides on the MC3R and MC4R cell lines during measurement window 1, while the antagonist profile in the presence of EC90 α-MSH was determined on measurement window 2. […] EC50 or IC50 potency values were determined by non-linear regression by fitting the data to a sigmoid four-parameter variable slope model using the GraphPad Prism version 8.4 software package (San Diego CA).
With `CCCC[C@H](NC(C)=O)C(=O)N[C@H](C)C(=O)N(C)[C@@H](Cc1c[nH]cn1)C(=O)N[C@@H](Cc1ccccc1)C(=O)N[C@@H](CCCNC(=N)N)C(=O)N[C@H](Cc1c[nH]c2ccccc12)C(=O)N[C@@H](CC(=O)O)C(=O)N[C@@H](CCCNC(=N)N)C(=O)N[C@@H](Cc1ccccc1)C(=O)NCC(=O)O` [CTX-1186, Nle-D-Ala-NMe-His-Phe-Arg-D-Trp-Asp-Arg-Phe-Gly] (Ac-[Nle][dA][NMeH]FR[dW]DRFG-OH), the “MC3R selectivity (relative to MC4R)” value was determined as 1884.

`CCCC[C@H](NC(C)=O)C(=O)N[C@H](C)C(=O)N[C@@H](Cc1c[nH]cn1)C(=O)N[C@@H](Cc1ccccc1)C(=O)N[C@@H](CCCNC(=N)N)C(=O)N[C@H](Cc1c[nH]c2ccccc12)C(=O)N[C@@H](CC(=O)O)C(=O)N[C@@H](CCCNC(=N)N)C(=O)N[C@H](Cc1ccccc1)C(N)=O` [CTX-1159, Nle-D-Ala-His-Phe-Arg-D-Trp-Asp-Arg-D-Phe] (Ac-[Nle][dA]HFR[dW]DR[dF]-NH2): the “MC3R selectivity (relative to MC4R)” value is reported as 213. Still for that read-out and setting: the figure for `CCCC[C@H](NC(C)=O)C(=O)N[C@H](C)C(=O)N[C@@H](Cc1c[nH]cn1)C(=O)N[C@@H](Cc1ccccc1)C(=O)N[C@@H](CCCNC(=N)N)C(=O)N[C@](C)(Cc1c[nH]c2ccccc12)C(=O)N[C@@H](CC(=O)O)C(=O)N[C@@H](CCCNC(=N)N)C(=O)N[C@@H](Cc1ccccc1)C(=O)NCC(=O)O` [CTX-1510, Nle-D-Ala-His-Phe-Arg-aMe-D-Trp-Asp-Arg-Phe-Gly] (Ac-[Nle][dA]HFR[d(αMeW)]DRFG-OH) is 23; for `CCCC[C@H](NC(C)=O)C(=O)N[C@H](C)C(=O)N[C@@H](Cc1c[nH]cn1)C(=O)N[C@@H](Cc1ccccc1)C(=O)N[C@@H](CCCNC(=N)N)C(=O)N[C@H](Cc1c[nH]c2ccccc12)C(=O)N[C@@H](CC(=O)O)C(=O)N[C@@H](CCCNC(=N)N)C(=O)N[C@H](Cc1ccccc1)C(=O)N[C@@H](CCCCN)C(=O)O` [CTX-1160, Nle-D-Ala-His-Phe-Arg-D-Trp-Asp-Arg-D-Phe-Lys] (Ac-[Nle][dA]HFR[dW]DR[dF]K-OH) it is 1,257.

`CCCC[C@H](NC(=O)[C@@H](NC(=O)[C@@H](N)Cc1ccc(O)cc1)C(C)C)C(=O)NC(C)(C)C(=O)N[C@@H](Cc1c[nH]cn1)C(=O)N[C@@H](Cc1ccccc1)C(=O)N[C@@H](CCCNC(=N)N)C(=O)N[C@H](Cc1c[nH]c2ccccc12)C(=O)N[C@@H](CC(=O)O)C(N)=O` [CTX-1130, Tyr-Val-Nle-Aib-His-Phe-Arg-D-Trp-Asp] (H-YV[Nle][Aib]HFR[dW]D-NH2): the “MC3R selectivity (relative to MC4R)” value was found to be 58.
